Assay results taken from patent publication US20160257958.

Each sequence was assayed against T1, biotinylated human D-hepcidin-25 (mirror-image peptide) (Homo sapiens) (UniProt P81172) (assay: SPR). Conditions: 37 C, 1 mM Mg, 1 mM Ca.
T1 sequence: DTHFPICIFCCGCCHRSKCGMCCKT

**Q.** Which Kd does the source give for “GCACUCGUAAAGUAGAGGGACCCAGUCCGGCGUGAUAGUGCCGAGUGC [223-C5-001 (D-RNA)]” here?
**A.** Its Kd is 1.2 nM.

**Q.** For “CGUGUGUAAAGUAGAGGACAAUUGUCGGCGUGAUAGUGCCACACG [229-B1-001 (D-RNA)]”, which Kd is on record?
**A.** The Kd was 0.5 nM.

These sequences were tested against T2, human hepcidin-25 (L-peptide) (Homo sapiens) (UniProt P81172) (assay: SPR). Conditions: L-RNA; 5'-40 kDa PEG; 37 C, 1 mM Mg, 1 mM Ca.
T2 sequence: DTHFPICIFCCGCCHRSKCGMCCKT

**Q.** With “GCGCGCGUAUGGGAUUAAGUAAAUGAGGAGUUGGAGGAAGGCGCGC [238-D4-002-5'-PEG]” as the sequence, how does the Kd read?
**A.** The Kd was 0.53 nM.

**Q.** Which Kd does the source give for “GGCCGGACAGCCGGGGGACACCAUAUACAGACUACGAUACGGCC [238-C4-006-5'-PEG]” here?
**A.** The Kd was 0.76 nM.

**Q.** How did the Kd turn out when “GCGCCGUAUGGGAUUAAGUAAAUGAGGAGUUGGAGGAAGGGCGC [238-D4-008-5'-PEG (NOX-H94)]” was run?
**A.** The Kd was 0.64 nM.

**Q.** For “GCACUCGUAAAGUAGAGGGACCCAGUCCGGCGUGAUAGUGCCGAGUGC [223-C5-001-5'-PEG]”, which Kd is on record?
**A.** Its Kd is 4.44 nM.

**Q.** How did the Kd turn out when “GCUGUGUAAAGUAGAGGACAAUUGUCGGCGUGAUAGUGCCACAGC [229-B1-002-5'-PEG]” was run?
**A.** The Kd was 1.92 nM.

Same assay, conditions: L-RNA; 37 C, 1 mM Mg, 1 mM Ca

**Q.** How did the Kd turn out when “AGGCUCGGACAGCCGGGGGACACCAUAUACAGACUACGAUACGGGCCU [238-C4-001 (L-RNA)]” was run?
**A.** The Kd was 0.9 nM.

**Q.** How did the Kd turn out when “AGCGUGUCGUAUGGGAUUAAGUAAAUGAGGAGUUGGAGGAAGGGCAUGCU [238-D4-001 (L-RNA)]” was run?
**A.** Its Kd is 0.51 nM.

**Q.** Which Kd does the source give for “GCACUCGUAAAGUAGAGGGACCCAGUCCGGCGUGAUAGUGCCGAGUGC [223-C5-001 (L-RNA)]” here?
**A.** The Kd was 2.7 nM.

**Q.** “GCUGUGUAAAGUAGAGGACAAUUGUCGGCGUGAUAGUGCCACAGC [229-B1-002 (L-RNA)]” was tested. Which Kd did it give?
**A.** The Kd was 1.47 nM.

Same assay, conditions: L-RNA; 37 C, data not shown

**Q.** How did the Kd turn out when “CGUGUGUAAAGUAGAGGACAAUUGUCGGCGUGAUAGUGCCACACG [229-B1-001 (L-RNA)]” was run?
**A.** The Kd was 1.25 nM.
